± gives the standard deviation of the averaged measurements.
Test system: ATP
Assay: switch fluorescence ratio, 500 uM ATP over buffer (Cy3 cluster intensity, sum of 5 cycles each) (fold (ratio)); higher = stronger signal-on switching upon ATP binding; sequences stand for … in TCGTCGGCAGCGTCAGATGTGTATAAGAGACAGTTTTTTTTTTTTTTTTTTTTTTTTT…TC
Settings: aptamer strand: ATP DNA aptamer (quencher-CACCTGGGGGAGTATTGCGGAGGAAGG + anchor), 100 nM annealed; ATP concentration: 500 uM
How it was run: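 Cy3-labelled switching-strand clusters on a modified Illumina MiSeq flow-cell were annealed to 100 nM quencher-labelled ATP aptamer, imaged in selection buffer, then imaged after 15 min with 500 uM ATP at 22 °C. Five buffer/ATP cycles ran, with NaOH stripping and re-annealing between them. The fluorescence ratio is summed target-cycle over summed buffer-cycle Cy3 intensity per cluster, averaged per switch-domain sequence. Clusters outside 100-1000 RFU were excluded.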
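Further: ATP exposure 15 min at 22 °C before imaging.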

Sequence | switch fluorescence ratio
CTATTCCTGT | 0.995 ± 0.014
AAGGAAAATT | 0.973 ± 0.02
GCAGTCAAGC | 1.08 ± 0.011
GGGCAGGGGC | 1 ± 0.025
ATCGTGGGGT | 0.971 ± 0.016
GATTGGGACT | 0.975 ± 0.027
GGATCCAGTA | 1.02 ± 0.045
ATAATAGGTT | 0.986 ± 0.028
CCGCTAGCCT | 2.94 ± 0.53
AGCAAGGGCA | 1.0103 ± 6.2e-05
TTTAATGGGT | 1 ± 0.022
ATAGGGACAG | 1.012 ± 0.0078
TTATGACTGT | 1.015 ± 0.01
CACGTCAACT | 1.32 ± 0.06
TTTTTGGTAA | 1.01 ± 0.021
AGGGTGGTGC | 1.03 ± 0.018
TTTTGTGAGC | 0.996 ± 0.021
GGATGGTGCT | 0.948 ± 0.027
TTATACTGGG | 0.992 ± 0.012
GGGTCTTTGA | 1.03 ± 0.041
TGAGAGGGGG | 1 ± 0.083
GATCTGGTAC | 1.06 ± 0.037
TCATGCTTGA | 0.974 ± 0.032

Sequence | switch fluorescence ratio
GGGGTGGAGC | 1.05 ± 0.014
TGGAAGGTTT | 1.08 ± 0.11
GGAGGGAGTT | 1.03 ± 0.049
CGAAGTACCG | 1.08 ± 0.011
CGTATGAGGG | 0.9679 ± 0.0066
GGGGCCGTAA | 0.992 ± 0.025
TAAGTATTG | 1.01 ± 0.017
ACTATGGGGA | 1.01 ± 0.0026
TCTGAATGG | 1.01 ± 0.033
TCTGCTTATT | 0.979 ± 0.048
TCGGAAATGT | 1.12 ± 0.14
CGACTATTTT | 1.01 ± 0.045
AAATTAATTT | 1.02 ± 0.043
CGTAAAAATG | 1.01 ± 0.024
CTCGCTGGTA | 1.003 ± 0.0081
GACTGGTATG | 0.972 ± 0.011
AAACTACTAC | 1.147 ± 0.0017
GTATCGAGAG | 1.01 ± 0.013
GCGGCAAGGG | 1.03 ± 0.035
GGATTAAGCT | 1.015 ± 0.0043
GAGTATGTGC | 0.9691 ± 0.0066
TTATTGGAGA | 0.996 ± 0.015
TCACTCCTTT | 1.01 ± 0.019

Sequence | switch fluorescence ratio
TTCGATAGTT | 1.89 ± 1.2
GATTTCGGTC | 1.05 ± 0.056
TGATACTCTG | 1.03 ± 0.029
GGGGCTATCT | 1.33 ± 0.42
GAGGGCTTCG | 1.02 ± 0.1
CACATCACTT | 1.43 ± 0.27
GCAGGTTCAG | 0.975 ± 0.021
ACTCATTTC | 1.03 ± 0.047
CCGAGGTATC | 3.23 ± 2.1
GATTTACAGC | 1.02 ± 0.054
TATGGAAGCC | 0.982 ± 0.034
TTAATATAGG | 0.999 ± 0.011
TGGCGGGATA | 1.009 ± 0.0013
GTAGGGTGTG | 0.973 ± 0.041
TAAGTACTTT | 0.977 ± 0.025
TTTGTGGACT | 1.01 ± 0.031
GAGGGACGCT | 1.02 ± 0.033
TTATATGTGA | 1.04 ± 0.011
AAATCGGAAA | 0.98 ± 0.028
CTGTCCGGTA | 1.056 ± 0.008
TCAGTGTGCT | 0.98 ± 0.014
AGGCTTTTTC | 0.999 ± 0.024
TAGCTGCATG | 1.01 ± 0.017

Sequence | switch fluorescence ratio
ATGATTTTGG | 0.992 ± 0.023
AGGGTCAGCT | 1.02 ± 0.014
TAACACGGTA | 1.16 ± 0.0035
AGATATAACT | 1.021 ± 0.0066
CTGCGAGGGG | 1 ± 0.016
CCACATTGTA | 1.01 ± 0.018
CTGGCGGTCC | 1.028 ± 0.0066
TCAGTACGCA | 1.57 ± 0.095
GAAATGGGAG | 0.998 ± 0.045
GGGTGGGTAT | 1 ± 0.027
TCCTTGACGA | 1.06 ± 0.013
GCTAGGGGGA | 1.03 ± 0.05
GAGGCTGATA | 1.02 ± 0.013
AAACACGAGC | 1.067 ± 0.0061
TCCAGGGGAG | 1.13 ± 0.032
GTATGCCGGG | 0.939 ± 0.057
GATTGAGCCC | 0.971 ± 0.037
ATTTTATGCG | 0.985 ± 0.023
TTTCCCGTTG | 1.07 ± 0.12
CGTTGGCATA | 1.149 ± 0.0065
TCCCTCTCCG | 1.27 ± 0.36
TAGTTTTTCA | 1.01 ± 0.039
GCTAGAATGT | 1 ± 0.019

Sequence | switch fluorescence ratio
ATATTTATCG | 1.01 ± 0.033
AGGGGCTCGT | 1 ± 0.012
CAAGGAATGG | 0.995 ± 0.035
GCGGCATTGG | 1.04 ± 0.053
AGGGGCTGAA | 0.986 ± 0.042
GTTCGGGCAT | 1.07 ± 0.026
AGGCATCTGG | 0.994 ± 0.011
TCCAGAGTGC | 1.017 ± 0.0033
AGTGTTGGGC | 1.05 ± 0.023
TGCAAAATAA | 1.17 ± 0.24
AGTAAGGGTT | 1 ± 0.048
GTGATTTGT | 1.01 ± 0.03
CGTAACTTGG | 1.01 ± 0.029
AAGATGACTA | 0.986 ± 0.042
CTTGGGGGAT | 0.979 ± 0.038
TTTTCGTAGC | 1.09 ± 0.14
GTGTGCCTGG | 0.985 ± 0.055
TAAGATTCGT | 1 ± 0.031
GACATTTGCA | 1.03 ± 0.023
CTTTATTTAA | 1.02 ± 0.02
TTTTGGAGC | 1.05 ± 0.068
CTAATGGAGG | 1.01 ± 0.011
GTAGGTAGCG | 0.984 ± 0.031

Sequence | switch fluorescence ratio
GCATGACCAG | 0.974 ± 0.026
TTCGTACTTT | 1 ± 0.043
GATGAATGTT | 0.9766 ± 0.0041
GAGATTGGGG | 0.99 ± 0.022
CCGTCTGGCG | 0.9959 ± 0.0067
GCCAGAGCGA | 1.27 ± 0.0013
AAAAAGGGT | 0.987 ± 0.032
GGAGTAAATG | 1.01 ± 0.015
TGCGTTCTGG | 1.048 ± 0.007
TCGGGGGTTA | 1.01 ± 0.023
TGGGGGCGGC | 1.046 ± 0.0061
TCTTAGCATT | 1.04 ± 0.077
AGTTGGTCGG | 0.975 ± 0.031
TCAGTTCGGC | 0.976 ± 0.037
ATAACCATCA | 0.996 ± 0.057
AATAAACAGA | 1.02 ± 0.017
AGTTAGGAGG | 0.947 ± 0.053
AGCCGTCCCC | 0.993 ± 0.02
TTTGATGTTA | 0.981 ± 0.034
GGTTTTCATT | 0.951 ± 0.053
ATGAGTTTTC | 1.024 ± 0.0043
GGTACTTCTA | 1.01 ± 0.018
GACTAAAAGA | 0.99 ± 0.055

Sequence | switch fluorescence ratio
ACCTATTTTT | 1.01 ± 0.017
TTTTTAAAAC | 1.003 ± 0.0097
TTCCTATCGT | 1.046 ± 0.0022
TATGTTGAGG | 1 ± 0.035
AACGTCTTTT | 0.9826 ± 0.0038
ACAGATTCTA | 0.984 ± 0.05
ATATAGGGTG | 1.09 ± 0.019
TGCAGCTGCG | 0.974 ± 0.049
CCACGTCAAC | 1.59 ± 0.052
AATATTTTGA | 1.02 ± 0.016
GGAATGTGGT | 1.027 ± 0.002
CGGCTGGGGG | 0.976 ± 0.014
TGAGTCTGCG | 1.02 ± 0.12
CATGTGGTGG | 0.998 ± 0.039
ACAGGTAAGG | 1.055 ± 0.0073
ATAGGACTGA | 1.03 ± 0.023
TCCCGTTTTT | 1.02 ± 0.065
GTGATGGTTT | 0.982 ± 0.013
CTTGGGCCGC | 1.13 ± 0.048

Reference: the supplement of paper PMC10126150
